The values below come from the supplement of paper PMC10724198.

± gives the standard deviation of the averaged measurements.
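Also: PSI is a weighted mean of sequencing reads over stability bins, variants kept only with over 10 reads, mCherry proximal and sfGFP distal, peptide attached via GGGS linker.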

This data set has as its system Saccharomyces cerevisiae. Put plainly: protein stability index of tFT-peptide fusion (C-terminal peptide) (PSI (0-1 scale)); higher = more stable (slower turnover). The settings on record: genetic background: wild type; temperature: 30 C. On the procedure: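 Multiplexed protein stability (MPS) profiling in S. cerevisiae. Random 12-aa peptides (tFT-X12 library) are fused to the C-terminus of a sfGFP-mCherry tandem fluorescent timer, after mCherry and a GGGS linker. Cells are FACS-sorted into 8 mCherry/sfGFP bins and deep-sequenced. The protein stability index (PSI) is the read-weighted bin average, scaled from 0 (unstable) to 1 (stable). Only peptides with >10 reads are reported; cells were grown at 30 °C in SC-His with glucose.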
In turn, GLGGYVIKYIMI displayed a protein stability index of 0.572 ± 0.02.
Regarding GLGLAFRGSFVL, the protein stability index stood at 0.69 ± 0.056.
GLGREVAIMNTW came in with a protein stability index of 0.669 ± 0.058.
On to GLGWGGRGMRVV, for which the protein stability index stood at 0.695 ± 0.026.
The sequence GLMGWGLFCGFG gave a protein stability index of 0.7759 ± 0.0043.
GLPRAANMKGSE showed a protein stability index of 0.652 ± 0.011.
Turning to GLREGRRRSNDQ, the protein stability index worked out at 0.653 ± 0.12.
In turn, GLRFIAMNIQML registered a protein stability index of 0.658 ± 0.026.
In turn, GLRIRFSNSYVG displayed a protein stability index of 0.688 ± 0.057.
For the sequence GLRLCLSMWLRD, the protein stability index amounted to 0.633 ± 0.054.
Next, GLRTPHASVPPQ: 0.66 ± 0.023; GLSDLTFFKRLF: 0.659 ± 0.036.
GLSIVCRHYEES returned a protein stability index of 0.685 ± 0.022.
The sequence GLSLLVDLNVWF showed a protein stability index of 0.569 ± 0.034.
Sequence GLSSNVTSSTLS gave a protein stability index of 0.685 ± 0.015.
In the case of GLTSRIAAGRQR it was 0.696 ± 0.022; in that of GLTWLVLGFPGS, 0.757 ± 0.052; in that of GLVGRGGAVGEW, 0.68596 ± 0.00038.
In the case of GLVSGGFYFGLL it was 0.681 ± 0.054; in that of GLVVCGGQVVEG, 0.704 ± 0.042.
Next, GLVWGGCGTVGG: 0.768 ± 0.17; GLVWGGGGTVGG: 0.73 ± 0.12; GLVWRSRDDQLS: 0.764 ± 0.07.
For the sequence GLYSGGLGAGVG, the protein stability index worked out at 0.658 ± 0.092.
Sequence GMGTWSSNRREC had a protein stability index of 0.872 ± 0.18.
Turning to GMLLCAGGISKG, the protein stability index is 0.584 ± 0.011.
In turn, GMVFGLAWCGCL had a protein stability index of 0.619 ± 0.046.
In the case of GNHNGKIILDNR it was 0.679 ± 0.023; in that of GNNREGYRSAQA, 0.599 ± 0.054; in that of GNVLIRFSCSDS, 0.754 ± 0.05.
With GNWRGLRLMSAP, the protein stability index was 0.7603 ± 0.0062.
Next, GPAGGGRLECGV: 0.7157 ± 0.0069; GPCTTFVVLLPE: 0.778 ± 0.14; GPFGCLRSLIRG: 0.642 ± 0.097.
In the case of GPGAGRRKSAER it was 0.61607 ± 0.00056; in that of GPGGVGGTSGGK, 0.69 ± 0.062.
In the case of GPGVGYGRWRGG it was 0.667 ± 0.094; in that of GPHGNPGLAPLA, 0.7282 ± 0.0021.
Consider GPLRPTPAPNRT, for which the protein stability index was 0.644 ± 0.0079.
As to GPPFAPASPVPL, the protein stability index turned out to be 0.761 ± 0.038.
For GPPPPPPFPPLP, the protein stability index was 0.708 ± 0.0076.
Next, GPRQGVLEAASS: 0.636 ± 0.025; GPSIYGFEESFS: 0.691 ± 0.0093; GPSPPSPSPPPL: 0.622 ± 0.0084.
Regarding GPSRTPRHPSPP, the protein stability index amounted to 0.701 ± 0.053.
Next, GPSWYGKNSLHK: 0.686 ± 0.051; GPVTDWPLLLFK: 0.5901 ± 0.0015; GQDNSEVLGSVQ: 0.668 ± 0.12.
In the case of GQHAAVNASVVR it was 0.665 ± 0.013; in that of GQIACSECGGGG, 0.679 ± 0.027; in that of GQKRKGTRSKVP, 0.696 ± 0.026.
In the case of GQSGFGYVGSMK it was 0.669 ± 0.049.
Sequence GQSLGLPGRWYI yielded a protein stability index of 0.775 ± 0.06.
GQTMDLRKCTGP: the protein stability index was 0.6436 ± 0.0037.
In the case of GQVGDRVVSVGL it was 0.694 ± 0.028.
Next, GQWCVAAALIER: 0.699 ± 0.1; GQWGGATLGLVG: 0.777 ± 0.021.
In the case of GRAGLRIESSKY it was 0.692 ± 0.024; in that of GRAVCRALVEAR, 0.552 ± 0.031; in that of GRCIPSFVLPRY, 0.693 ± 0.029.
The sequence GRCSRGVEGVSG had a protein stability index of 0.675 ± 0.034.
For the sequence GRCWVMCSEGEK, the protein stability index worked out at 0.64 ± 0.057.
Regarding GREGGEQRKEGK, the protein stability index was 0.692 ± 0.029.
In the case of GREGTEIGKWRE it was 0.74 ± 0.12.
